These are literature values, as cited in publication PMC9974451.

Usually Kd stands for a measure of binding affinity in units of concentration.

This series addresses Ubc9 (Homo sapiens) (UniProt P63279). Briefly: differential scanning fluorometry. A general note: DSF heats the sample and reads unfolding from a dye or from intrinsic fluorescence.

importin 13, sequence (O94829 whole entry): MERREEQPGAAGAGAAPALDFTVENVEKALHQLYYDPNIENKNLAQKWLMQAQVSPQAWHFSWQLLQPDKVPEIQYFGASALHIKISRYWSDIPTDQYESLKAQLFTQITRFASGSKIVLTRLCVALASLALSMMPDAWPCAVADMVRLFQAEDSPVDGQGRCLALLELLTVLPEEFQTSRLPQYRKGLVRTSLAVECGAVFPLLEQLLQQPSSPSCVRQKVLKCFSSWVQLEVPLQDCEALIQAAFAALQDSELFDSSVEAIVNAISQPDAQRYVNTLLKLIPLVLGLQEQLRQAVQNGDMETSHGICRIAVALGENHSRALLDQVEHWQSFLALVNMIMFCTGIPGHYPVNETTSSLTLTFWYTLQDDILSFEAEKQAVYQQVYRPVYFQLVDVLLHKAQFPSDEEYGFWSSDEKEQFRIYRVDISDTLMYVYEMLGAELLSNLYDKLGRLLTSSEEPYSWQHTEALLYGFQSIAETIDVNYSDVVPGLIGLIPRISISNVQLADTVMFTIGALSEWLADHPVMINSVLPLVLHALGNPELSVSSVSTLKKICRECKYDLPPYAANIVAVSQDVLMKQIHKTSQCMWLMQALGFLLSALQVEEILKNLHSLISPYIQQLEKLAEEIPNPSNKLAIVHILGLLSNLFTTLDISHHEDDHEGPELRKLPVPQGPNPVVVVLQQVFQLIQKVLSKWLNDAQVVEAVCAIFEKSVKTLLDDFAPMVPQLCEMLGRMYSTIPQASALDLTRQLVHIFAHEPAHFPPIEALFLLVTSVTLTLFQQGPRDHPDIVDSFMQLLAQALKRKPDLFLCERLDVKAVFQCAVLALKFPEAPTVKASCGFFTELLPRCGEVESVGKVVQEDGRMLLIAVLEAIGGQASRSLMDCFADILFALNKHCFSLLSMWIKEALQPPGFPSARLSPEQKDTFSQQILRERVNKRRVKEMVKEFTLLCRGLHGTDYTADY
Ubc9 (Homo sapiens), sequence (P63279 2-158): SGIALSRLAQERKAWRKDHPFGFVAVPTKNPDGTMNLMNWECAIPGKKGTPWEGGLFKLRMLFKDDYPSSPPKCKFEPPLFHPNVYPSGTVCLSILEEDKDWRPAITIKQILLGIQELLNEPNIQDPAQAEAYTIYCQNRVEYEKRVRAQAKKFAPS

Turning to importin 13 (from UniProt O94829), the Kd is 370 nM.
